Laboratory results taken from patent US20160096892A1 (Novartis, published 2016).

Molecular target: T1, recombinant Fc-tagged hsCD33 (human, UniProt P20138 18-259)
T1 construct: Soluble staining reagent, detected with a PE-conjugated Fc-specific secondary antibody; not shown: Fc tag
Assay: flow cytometry; JNL cells displaying the scFv CAR, recombinant Fc-tagged hsCD33, PE anti-Fc secondary
Procedure: FIG. 32 is an image depicting cross-reactivity of T cells expressing scFvs targeting CD33 to cynomolgus CD33 (cyCD33) by flow cytometry. JNL cells transduced with a lentiviral vector expressing scFv's raised against hsCD33 were incubated with either recombinant Fc-tagged hsCD33 (dotted line) or cyCD33 (solid line) followed by incubation with an Fc-specific secondary antibody conjugated to phycoerythrin.
Finally, scFv cross-reactivity to cynomolgus CD33 (cyCD33) was assessed by flow cytometry as depicted in FIG. 32. JNL cells transduced with a lentiviral vector expressing scFv's raised against hsCD33 were incubated with either recombinant Fc-tagged hsCD33 (red line) or cyCD33 (blue line) followed by incubation with an Fc-specific secondary antibody conjugated to phycoerythrin. While scFv clones CD33-1, -2, -3, -4, -5, -6, -7, -9, and CD33-UPenn were capable of binding hsCD33, we note that only scFv clone CD33-5 appeared to be cross-reactive to both hsCD33 and cyCD33 (FIG. 32).

T1 sequence (P20138 18-259 limits assumed): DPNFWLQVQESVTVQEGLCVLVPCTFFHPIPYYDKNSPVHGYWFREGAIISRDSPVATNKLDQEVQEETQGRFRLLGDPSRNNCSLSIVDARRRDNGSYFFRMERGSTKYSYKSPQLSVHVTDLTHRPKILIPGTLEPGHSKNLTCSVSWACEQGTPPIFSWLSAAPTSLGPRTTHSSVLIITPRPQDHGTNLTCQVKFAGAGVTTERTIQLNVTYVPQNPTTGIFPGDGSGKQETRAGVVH

B1: CD33-UPenn (scFv based on the sequence of Mylotarg; humanized My96) (scFv, not shown: small tags and cut ends)
chain: EIVLTQSPGSLAVSPGERVTMSCKSSQSVFFSSSQKNYLAWYQQIPGQSPRLLIYWASTRESGVPDRFTGSGSGTDFTLTISSVQPEDLAIYYCHQYLSSRTFGQGTKLEIKRGGGGSGGGGSSGGGSQVQLQQPGAEVVKPGASVKMSCKASGYTFTSYYIHWIKQTPGQGLEWVGVIYPGNDDISYNQKFQGKATLTADKSSTTAYMQLSSLTSEDSAVYYCAREVRLRYFDVWGQGTTVTVSS
notes: also called CAR33-UPenn
binding result: binds
